Patent US20240376225A1 (CHILDREN S MEDICAL CENTER, published 2024)

Columns and labels:
[1] = target: cyno CD21 protein (cynomolgus monkey); assay: SPR (Biacore)
[2] = target: T1, cyno CD21 on CHO cells (cynomolgus monkey, UniProt A0A2K5URG6 21-1034); assay: flow cytometry, competition with biotinylated human C3d on CHO-cynoCD21 cells
T1 construct: whole, on cells; also called CHO-cyno CD21 cells; CHO-cynoCD21
T1 sequence: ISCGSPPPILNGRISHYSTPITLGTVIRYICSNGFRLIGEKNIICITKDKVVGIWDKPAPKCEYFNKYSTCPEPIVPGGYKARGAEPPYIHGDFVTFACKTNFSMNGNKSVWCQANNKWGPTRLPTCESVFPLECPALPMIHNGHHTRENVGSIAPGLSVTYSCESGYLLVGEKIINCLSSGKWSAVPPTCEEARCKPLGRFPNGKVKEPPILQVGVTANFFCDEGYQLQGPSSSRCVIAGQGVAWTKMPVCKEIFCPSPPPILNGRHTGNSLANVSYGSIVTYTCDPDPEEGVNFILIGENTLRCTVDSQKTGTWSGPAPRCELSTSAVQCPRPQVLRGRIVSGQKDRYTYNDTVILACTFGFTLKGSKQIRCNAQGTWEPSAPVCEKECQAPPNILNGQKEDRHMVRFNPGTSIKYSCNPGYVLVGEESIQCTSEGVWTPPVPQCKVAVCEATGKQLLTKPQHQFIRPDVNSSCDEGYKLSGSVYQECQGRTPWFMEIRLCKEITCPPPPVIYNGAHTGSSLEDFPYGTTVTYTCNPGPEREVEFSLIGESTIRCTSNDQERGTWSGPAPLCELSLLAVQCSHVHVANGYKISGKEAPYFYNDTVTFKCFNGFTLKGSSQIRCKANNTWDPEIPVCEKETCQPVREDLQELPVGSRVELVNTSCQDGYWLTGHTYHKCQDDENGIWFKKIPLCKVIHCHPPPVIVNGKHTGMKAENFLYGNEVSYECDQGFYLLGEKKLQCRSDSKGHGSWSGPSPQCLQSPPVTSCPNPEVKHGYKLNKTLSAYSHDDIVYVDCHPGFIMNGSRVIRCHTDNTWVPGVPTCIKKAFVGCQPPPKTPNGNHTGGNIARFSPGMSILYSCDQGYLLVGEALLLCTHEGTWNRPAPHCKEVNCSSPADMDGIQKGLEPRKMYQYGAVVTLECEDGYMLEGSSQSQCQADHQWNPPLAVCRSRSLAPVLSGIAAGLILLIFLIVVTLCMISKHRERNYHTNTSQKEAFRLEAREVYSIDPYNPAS
Description: (§1) To measure neutralization of C3d binding to cell-surface CD21 by flow cytometry, human Raji cells and CHO-cyno CD21 cells were used. Cells were dissociated with cell dissociation buffer (Sigma) and blocked on ice with PBS+3% bovine serum albumin (BSA)+human Fc blocker. In a 96-well plate, […] were incubated for 0.5 hr on ice with 3-fold serially diluted Ab15 (starting from 100 nM), then with 4.5 ug/ml biotinylated human C3d. SA-BV451 conjugate (BD Bioscience, cat. #563529) was then added at 0.5 ug/ml for 1 hr on ice. Cells were washed again with cold PBS, resuspended in PBS and analyzed for human C3d binding on a BD Fortessa™.

[3] = target: T2, human CD21 on Raji B cells or primary B cells (human, UniProt P20023 21-1033); assay: flow cytometry, competition with biotinylated human C3d on Raji B cells
T2 construct: whole, on cells; also called cell-surface human CD21; Raji cells
T2 sequence (looked up): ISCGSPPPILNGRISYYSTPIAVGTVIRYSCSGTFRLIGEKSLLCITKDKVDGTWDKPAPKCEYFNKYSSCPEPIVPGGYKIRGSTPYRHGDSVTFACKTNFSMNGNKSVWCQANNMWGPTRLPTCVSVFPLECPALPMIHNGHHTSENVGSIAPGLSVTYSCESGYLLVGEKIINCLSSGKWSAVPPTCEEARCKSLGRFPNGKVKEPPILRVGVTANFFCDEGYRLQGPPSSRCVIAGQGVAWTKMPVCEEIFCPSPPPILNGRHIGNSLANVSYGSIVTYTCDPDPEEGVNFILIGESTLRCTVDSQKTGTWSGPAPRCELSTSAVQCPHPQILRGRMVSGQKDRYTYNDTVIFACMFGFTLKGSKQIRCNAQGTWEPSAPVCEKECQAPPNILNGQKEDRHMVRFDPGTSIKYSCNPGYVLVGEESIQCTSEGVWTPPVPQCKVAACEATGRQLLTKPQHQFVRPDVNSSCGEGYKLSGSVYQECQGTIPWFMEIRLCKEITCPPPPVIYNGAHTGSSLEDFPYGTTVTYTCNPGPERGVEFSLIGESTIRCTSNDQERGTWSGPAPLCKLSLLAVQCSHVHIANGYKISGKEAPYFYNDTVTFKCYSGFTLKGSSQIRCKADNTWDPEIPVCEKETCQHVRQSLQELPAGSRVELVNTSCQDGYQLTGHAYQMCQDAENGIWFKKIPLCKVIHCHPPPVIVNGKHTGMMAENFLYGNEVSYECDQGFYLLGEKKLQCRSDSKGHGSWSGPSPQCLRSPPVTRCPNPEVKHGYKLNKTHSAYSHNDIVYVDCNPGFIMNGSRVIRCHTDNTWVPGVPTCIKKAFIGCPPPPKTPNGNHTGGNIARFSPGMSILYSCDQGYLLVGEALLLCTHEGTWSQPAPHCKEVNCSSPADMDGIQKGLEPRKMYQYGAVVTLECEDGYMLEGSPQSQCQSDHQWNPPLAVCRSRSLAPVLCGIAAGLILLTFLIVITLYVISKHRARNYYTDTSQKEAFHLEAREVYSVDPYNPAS
Description: as §1

Kd [1]: 5.77 nM | IC50 [2]: 0.24 nM | IC50 [3]: 1.17 nM
B1: Ab15 (antibody, human IgG1, kappa, V domains shown)
VH: QVQLVQSGAEVKKPGSSVKVSCKASGGTFSSYAISWVRQAPGQGLEWMGRIIPILGIANYAQKFQGRVTITADKSTSTAYMELSSLRSEDTAVYYCAREDDSSGYYQDWGQGTLVTVSS
VL: EIVMTQSPATLSLSPGESATLSCRAGQSINSHLAWYQQKPGQSPSLLIYDASTRATGVPARFSGSGFGTEFTLTISSLQSEDFAVYFCQQYEYWYTFGQGTKLEIKR
notes: Tb-labeled in the HTRF assay; also called 36C01; SC38-36C01 (IgG1 version)
